Earlier results, collected in paper PMC3683042, “Solution Structure and Peptide Binding of the PTB Domain from the AIDA1 Postsynaptic Signaling Scaffolding Protein” (PLoS ONE, 2013).
pKd: −log10 of the molar value.

How the values were obtained:
[1] = biological target: APP 11 aa peptide (Homo sapiens) (UniProt P05067)
[2] = biological target: APP 32 aa peptide (Homo sapiens) (UniProt P05067)
[3] = biological target: APP 14 aa peptide (Homo sapiens) (UniProt P05067)

Chain of Fe65 PTB2 (O00213 542-699): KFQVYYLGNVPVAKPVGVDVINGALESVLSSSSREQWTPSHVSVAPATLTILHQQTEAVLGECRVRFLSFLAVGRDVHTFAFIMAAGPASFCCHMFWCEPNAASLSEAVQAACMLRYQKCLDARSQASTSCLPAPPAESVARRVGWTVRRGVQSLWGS
Chain of APP 32 aa peptide (Homo sapiens) (P05067 739-770): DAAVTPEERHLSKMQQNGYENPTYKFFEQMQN
Chain of X11 PTB (Q02410 457-643): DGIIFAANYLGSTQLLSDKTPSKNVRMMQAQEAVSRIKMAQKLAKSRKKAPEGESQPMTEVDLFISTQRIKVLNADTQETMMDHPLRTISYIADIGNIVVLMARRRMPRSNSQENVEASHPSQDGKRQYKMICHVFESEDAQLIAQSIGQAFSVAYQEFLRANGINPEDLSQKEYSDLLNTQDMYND
Chain of APP 11 aa peptide (Homo sapiens) (P05067 whole entry, looked up, tested part not stated): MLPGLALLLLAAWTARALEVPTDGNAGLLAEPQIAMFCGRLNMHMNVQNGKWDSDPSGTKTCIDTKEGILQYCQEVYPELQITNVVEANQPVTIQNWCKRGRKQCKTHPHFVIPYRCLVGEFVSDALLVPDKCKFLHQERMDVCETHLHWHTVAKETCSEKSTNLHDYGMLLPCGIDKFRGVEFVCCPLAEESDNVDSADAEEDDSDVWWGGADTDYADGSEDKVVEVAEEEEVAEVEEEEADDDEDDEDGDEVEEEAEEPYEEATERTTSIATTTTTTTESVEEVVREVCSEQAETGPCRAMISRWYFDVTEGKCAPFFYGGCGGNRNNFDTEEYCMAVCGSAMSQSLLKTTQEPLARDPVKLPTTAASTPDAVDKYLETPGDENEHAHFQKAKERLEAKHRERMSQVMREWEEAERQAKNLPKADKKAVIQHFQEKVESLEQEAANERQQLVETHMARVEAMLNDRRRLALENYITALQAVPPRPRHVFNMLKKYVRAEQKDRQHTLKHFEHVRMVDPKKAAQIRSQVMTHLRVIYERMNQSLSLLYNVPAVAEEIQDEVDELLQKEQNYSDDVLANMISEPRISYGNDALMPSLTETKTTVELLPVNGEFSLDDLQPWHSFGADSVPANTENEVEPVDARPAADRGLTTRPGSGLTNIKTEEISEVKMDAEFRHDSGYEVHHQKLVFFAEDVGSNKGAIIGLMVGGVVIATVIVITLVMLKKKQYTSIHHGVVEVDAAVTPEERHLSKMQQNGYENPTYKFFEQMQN

| pKd [1] | pKd [2] | pKd [3] | Substance |
| --- | --- | --- | --- |
| 4.00 | 6.70 | – | Fe65 PTB2 (from UniProt O00213) |
| – | – | 6.52 | X11 PTB (from UniProt Q02410) |
